Test results taken from patent US8691944B2, “Fibronectin polypeptides and methods of use” (The Research Foundation for the State University of New York, priority 2005, dated 2014).
Where no end group is shown, it is not given here.

Assays:
TGF-β1 [1] = biological target: T1, TGF-β1 (Homo sapiens, UniProt P01137); assay: Equilibrium binding of TGF-β1 to FN, FN domains and peptides; settings: equilibrium binding
Procedure: These peptides represent domains that follow the sequence pattern [QN]-X(1,2)-[ST]-X(0,1)-[IG]-[QS]-[KRQ]-[YTM]-[IG]-X(4,5)-X(0,1)-[KR]-X(1,2)-X(1,2)-[RT]-X(1,2)-[KQTS]-X(2)-T and that bind TGF-β1 with a certain affinity. […] We know of no other peptides in the human genome database that follow this pattern.
(§1) To determine whether FN domains bind TGF-β1 and bFGF, equilibrium and kinetic binding was performed.

[2] = biological target: PDGF-BB binding to FNIII1, FNIII12-14 and IIICS (Homo sapiens, UniProt P01127); assay: Inhibition of PDGF-BB binding to FN domains by FNIII1 peptides
PDGF-BB binding to FNIII1, FNIII12-14 and IIICS, sequence (P01127 82-190 limits assumed): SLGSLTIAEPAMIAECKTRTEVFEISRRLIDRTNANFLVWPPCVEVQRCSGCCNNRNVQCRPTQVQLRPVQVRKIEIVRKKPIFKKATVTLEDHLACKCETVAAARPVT
From the text: Next, we determined if PDGF-BB-binding peptides from FNIII1 could inhibit PDGF-BB binding to FNIII1, FNIII12-14 and IIICS. For initial experiments we selected peptide 1 and peptide 2. For control, we used scrambled peptide 1.

PDGF-BB [3] = biological target: T2, PDGF-BB (Homo sapiens, UniProt P01127); assay: Equilibrium binding of PDGF-BB to FN, FN domains and peptides
T2 sequence (P01127 82-190 limits assumed): as above
From the text: (§2) This led us to speculate that PDGF was binding to the engineered ECM through the H or HV domain since vascular endothelial GF (VEGF), a member of the PDGF superfamily, had been reported to bind H and remain active while bound.
(§3) The survival of FN-null fibroblasts in the presence to PDGF-BB required substrate coated with intact FN or FNIII8-11+a PDGF-binding FN domain. […] To address this directly, we performed equilibrium binding assays with PDGF-BB to FN adsorbed to a surface or coupled to agarose beads. In addition, we also investigated the ability of other growth factors to bind intact FN.

TGF-β1 [4] = biological target: T1, TGF-β1; assay: Plasmon surface resonance kinetic binding of TGF-β1 to FN domains; settings: plasmon resonance
From the text: (§4) VEGF, TGF-β1, PDGF-BB and FGF-2 bound IIICS with similar affinities (KD˜10^−7 M). […] The tested biological activities of GFs bound to a FN functional domain were retained or enhanced. […] In addition, our studies provide important information regarding the delivery of GFs and the sequestering of GFs, as appropriate, for therapeutic (e.g., surgical) or aesthetic indications, including wound healing treatments (where an aim is GF delivery) and cancer treatments (where an aim is GF sequestration). Where FN fragments are used to deliver GFs, they may be described as maintaining, activating, stabilizing or enhancing GF activity.
as §1

human dermal fibroblasts = assay: Type 1 collagen production by fibroblasts on FN domain coated plates preincubated with TGF-β1; format: cell-based; settings: for type 1 collagen production in response to preincubated TGF-β1: plates coated with FNIII8-11 alone or with the named domain
From the text: Therefore, we investigated whether it retained its activity while bound to recombinant FN functional domains. FNIII8-11 was adsorbed on plastic tissue culture dishes at a surface density to maximally affect the attachment and spreading of human dermal fibroblasts with or without the presence of adsorbed FNIII1-2. […] The maximum collagen secretion was approximately 25% of the amount observed when TGF-β1 remained in the medium at the concentrations indicated. […] The numbers of attached and spread cells were essentially identical when fibroblasts were cultures on plates coated with both FNIII8-11 and FNIII1-2 or FNIII8-11 alone. Similar data was obtained when fibroblasts were cultured on plates that had been coated with FNIII8-11 and FNIII12-V15 and then preincubated with TGF-β1.

GFs = assay: Growth factor binding to FN domains (GFs in general)
From the text: as §2

[5] = system: mouse fibroblasts null for FN (FN−/−); assay: Survival of FN-null fibroblasts on FN domains with PDGF-BB; format: cell-based; settings: for FN-null cell survival with PDGF: plastic precoated with 0.15 μM GST-tagged FNIII8-11 ± the named domain, or named protein, PDGF-BB added 1 day after plating, 3 days; for FN-null cell survival / proliferation with PDGF-BB: FNIII8-11 + the named domain, or named protein
From the text: To further investigate the response of cells to PDGF-BB bound to FN domains, we investigated the survival response of mouse fibroblasts null for FN (FN−/−). First we determined the response of FN-null cells to PDGF-BB in the absence of serum or other sources of exogenous FN. […] […] […] Importantly, differential response of FN-null cells, plated on different FN domains, to PDGF-BB was not secondary to differences in attachment as judged by cell counts two hours after plating. The FNIII8-11 central cell binding domain was present in all circumstances.

FGF-2 = FGF-2 (Homo sapiens, UniProt P09038); assay: Plasmon resonance binding of FGF-2 to FN domains
FGF-2, sequence (P09038 143-288): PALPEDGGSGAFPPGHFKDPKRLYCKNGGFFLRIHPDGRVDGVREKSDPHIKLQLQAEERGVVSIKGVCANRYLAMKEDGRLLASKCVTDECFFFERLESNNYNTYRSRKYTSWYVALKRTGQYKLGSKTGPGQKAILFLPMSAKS
From the text: as §4

VEGF = assay: Plasmon resonance binding of VEGF to FN domains
From the text: as §4

PDGF-BB [6] = biological target: T2, PDGF-BB; assay: Surface plasmon resonance kinetic binding of PDGF-BB to FN domains
From the text: as §4, with “activity. […]” for “activity.”

ERK = ERK response to PDGF-BB in presence and absence of FNIII1-2; format: cell-based; settings: preliminary results
Procedure: In preliminary results investigating signal transduction pathway activation of growth factors in the presence of FN GF-binding peptides, the response of ERK to PDGF-BB in the presence and absence of FNIII1-2 was studied. Without FNIII1-2, the ERK response to PDGF-BB was maximum at 20 minutes and gradually diminished over four hrs. In the presence of FNIII 1-2, the ERK response to PDGF-BB, was about 25% greater and sustained for at least four hours.

fibroblast chemotaxis = assay: Fibroblast chemotaxis to GFs in the presence or absence of FN domains; format: cell-based; settings: in solution
Procedure: To determine whether FN functional domains modulated TGF-β1, bFGF or PDGF-BB activity in solution, fibroblast chemotaxis was performed in response to the GFs in the presence or absence of FN domains.

[7] = biological target: bFGF binding to any recombinant FN domain (Homo sapiens, UniProt P09038); assay: Inhibition of bFGF binding to recombinant FN domains
bFGF binding to any recombinant FN domain, sequence (P09038 134-288 limits assumed): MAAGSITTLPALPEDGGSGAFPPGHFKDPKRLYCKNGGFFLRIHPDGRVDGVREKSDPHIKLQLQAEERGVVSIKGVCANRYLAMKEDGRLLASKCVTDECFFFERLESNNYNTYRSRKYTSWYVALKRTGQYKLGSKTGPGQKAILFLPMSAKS

[8] = biological target: TGF-β1 binding to any recombinant FN domain (Homo sapiens, UniProt P01137); assay: Inhibition of TGF-β1 binding to recombinant FN domains
TGF-β1 binding to any recombinant FN domain, sequence (P01137 279-390 limits assumed): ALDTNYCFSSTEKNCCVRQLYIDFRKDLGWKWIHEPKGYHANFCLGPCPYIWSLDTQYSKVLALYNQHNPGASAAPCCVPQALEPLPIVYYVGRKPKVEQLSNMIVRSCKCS

EGF = EGF (Homo sapiens, UniProt P01133); assay: Binding of EGF to FN, FN domains and peptides
EGF, sequence (P01133 971-1023 limits assumed, species assumed): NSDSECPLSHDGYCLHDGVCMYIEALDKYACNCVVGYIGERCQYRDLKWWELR
From the text: as §4, §3, §1

TGF-α = TGF-α (Homo sapiens, UniProt P01135); assay: Binding of TGF-α to FN, FN domains and peptides
TGF-α, sequence (P01135 40-89 limits assumed, species assumed): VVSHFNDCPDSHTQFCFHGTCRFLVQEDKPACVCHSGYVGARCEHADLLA
Procedure: as §3, §1

FGF-1 = FGF-1 (Homo sapiens, UniProt P05230); assay: Binding of FGF-1 to FN, FN domains and peptides
FGF-1, sequence (P05230 whole entry, species assumed, the tested form may be a part): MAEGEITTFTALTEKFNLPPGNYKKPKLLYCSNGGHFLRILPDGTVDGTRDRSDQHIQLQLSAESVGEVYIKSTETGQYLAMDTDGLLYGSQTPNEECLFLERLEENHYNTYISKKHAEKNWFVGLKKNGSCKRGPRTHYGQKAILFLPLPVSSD
Procedure: as §3, §1

CCL-64 mink lung cells = assay: Inhibition of [3H]-thymidine incorporation by CCL-64 cells by FN-adhered TGF-β; format: cell-based
bFGF = bFGF (Homo sapiens, UniProt P09038); assay: Equilibrium binding of bFGF (FGF-2) to FN, FN domains and peptides; settings: equilibrium binding, intact FN; read-out: KD, bFGF (FGF-2) binding
bFGF, sequence (P09038 143-288): as the sequence (P09038 143-288) above
Procedure: as §3, §1

T1 sequence (P01137 279-390 limits assumed, species assumed): as the sequence (P01137 279-390 limits assumed) above

Substance | PDGF-BB binding (in words) (PDGF-BB [3]) | TGF-β1 binding (in words) (TGF-β1 [4]) | FGF-2 binding (in words) (FGF-2) | VEGF binding (in words) (VEGF) | PDGF-BB binding (in words) (PDGF-BB [6]) | also measured
QPSHISKY (Synthetically generated peptide) [FN634-641, 8 aa peptide from FNIII1] | – | – | – | – | – | TGF-β1 binding (in words) (TGF-β1 [1]): minimal binding activity
QLISIQQYGHQEVTRFDFTTTSTST [peptide 2] | – | – | – | – | – | inhibition of PDGF-BB binding to FNIII1, FNIII12-14 and IIICS [2]: neither peptide 2, nor the scramble varient of peptide 1 (FN634-658s), demonstrated inhibition
FN630-667: one half of the 76 aa FNIII1 peptide FN630-704 | demonstrated PDGF-BB binding | – | – | – | – | –
FNIII8-11: central cell-binding domain of FN containing RGD | did not | None of the GFs detectably bound | None of the GFs detectably bound | None of the GFs detectably bound | None of the GFs detectably bound | type 1 collagen production in response to preincubated TGF-β1 (human dermal fibroblasts): No increase in collagen synthesis; binding of any GF (in words) (GFs): In no case did any GF bind; FN-null cell survival with PDGF [5]: failed to survive; support of FN-null fibroblast survival in the presence of PDGF-BB ([5]; substrate coating, FNIII8-11 alone or + named domain): did not support cell survival
FNIII1-2: recombinant FN type III repeats 1-2 | – | all four GFs bound | all four GFs bound | all four GFs bound | all four GFs bound | ERK response to PDGF-BB, increase versus without FNIII1-2 (ERK): about 25%; duration of sustained ERK response to PDGF-BB (ERK): at least four; type 1 collagen production in response to preincubated TGF-β1 (human dermal fibroblasts): produced type 1 collagen in a dose response fashion; maximum collagen secretion, % of amount when TGF-β1 remained in the medium (human dermal fibroblasts; plates coated with FNIII8-11 and FNIII1-2, preincubated with TGF-β1): approximately 25%; Kd (PDGF-BB [3]): 37 nM; FN-null cell survival / proliferation with PDGF-BB [5]: enhance survival; chemotactic activity when assayed alone (fibroblast chemotaxis): no chemotactic activity; enhancement of chemotactic activity of TGF-β1, bFGF and PDGF-BB (fibroblast chemotaxis): enhanced the chemotactic activity; Kd (PDGF-BB [6]; kinetic binding): 9.1 nM
QPSHISKYILRWRPKNSVGRWKEAT [peptide 1] | – | – | – | – | – | inhibition of bFGF binding to any recombinant FN domain [7]: completely inhibited; Kd (PDGF-BB [3]): 250 nM; inhibition of TGF-β1 binding to any recombinant FN domain [8]: completely inhibited; inhibition of PDGF-BB binding to FNIII1, FNIII12-14 and IIICS [2]: marked inhibition
fibronectin [intact FN] | – | – | – | – | – | Kd (TGF-β1 [1]): 53 nM; EGF binding (in words) (EGF): did not; TGF-α binding (in words) (TGF-α): did not; FGF-1 binding (in words) (FGF-1): did not; Kd (PDGF-BB [3]): 49 nM; functional activity of TGF-β adhered to FN (CCL-64 mink lung cells): retained full functional activity; FN-null cell survival / proliferation with PDGF-BB [5]: robust proliferation; Kd (bFGF): 44 nM
FNIII8-V15: FN type III repeats 8 to V15 | – | – | – | – | – | FN-null cell survival / proliferation with PDGF-BB [5]: robust proliferation
FNIII1-11: recombinant FN type III repeats 1-11 | – | bound | did not | did not | bound | FN-null cell survival in the absence of PDGF-BB [5]: survived; FN-null cell survival / proliferation with PDGF-BB [5]: robust proliferation; FN-null cell survival with PDGF [5]: The best survival response
FNIII2: recombinant second FN type III repeat | – | all four GFs bound | all four GFs bound | all four GFs bound | all four GFs bound | –
anastellin: 76-aa peptide within FNIII1; anti-angiogenic, promotes FN polymerization | demonstrated PDGF-BB binding | bound | bound | all but VEGF bound | bound | –
FN668-704: one half of the 76 aa FNIII1 peptide FN630-704 | demonstrated PDGF-BB binding | – | – | – | – | –
FN70: 70 kDa amino terminus of FN, includes fibrin and gelatin binding domains | did not | None of the GFs detectably bound | None of the GFs detectably bound | None of the GFs detectably bound | None of the GFs detectably bound | binding of any GF (in words) (GFs): In no case did any GF bind
FNIII1: recombinant first FN type III repeat | – | all four GFs bound | all four GFs bound | all four GFs bound | all four GFs bound | FN-null cell survival with PDGF [5]: increased survival
